Assay results reported in patent US9226969B2, “Salt form of a multi-arm polymer-drug conjugate” (priority 2009, dated 2016).
Like-named read-outs stand apart in the source and are kept apart here.

Legend:
[1] = Aqueous hydrolysis at pH 10; settings: pH 10, 20° C., within 24 hours
Method: (§1) Experiments were performed to determine the fate of the irinotecan-containing PEG species in 4-arm-PEG-Gly-Irino-20K mixed TFA.chloride salt under transesterification (K2CO3 in CH3OH, 20° C.) and aqueous hydrolysis (pH 10, 20° C.) conditions.

[2] = Transesterification of irinotecan-containing PEG species; settings: K2CO3 in CH3OH, 20° C., after 45 minutes
Method: as §1

[3] = 40° C. and 75% relative humidity, over 3 months
Method: Compositions containing varying amounts of protonated irinotecan, as well as differing in the amount of TFA versus HCl salt were examined.
Samples were taken and analyzed on a periodic basis over the course of the studies.
FIG. 2 and FIG. 3 show another set of data obtained from the sample containing >99% HCl salt (<1% free base, squares) and a sample consisting of 86% total salts (14% free base, diamonds) that were stored at 40° C. and 75% relative humidity. […] The increase in smaller PEG species is indicative of decomposition of the PEG backbone to provide multiple PEG species.

Substance | aqueous hydrolysis reaction completion [1] [%] | transesterification reaction completion [2] [%] | free irinotecan (after 4 weeks at 40° C.) [%] | total product related species (after 4 weeks at 40° C.) [%] | free irinotecan (initial value, before storage) [%] | total product related species (initial value, before storage) [%] | increase in free irinotecan (stability with respect to hydrolysis) [3] | increase in smaller PEG species (PEG backbone decomposition) ([3]; listed as HCl salt) | increase in smaller PEG species (PEG backbone decomposition) ([3]; listed as hydrochloride salt)
Pentaerythritolyl-4-Arm-(PEG-1-Methylene-2Oxo-Vinylamino Acetate Linked-Irinotecan)-20K [listing 1 of 2 here] | > 99 | > 99 | – | – | – | – | – | – | –
Pentaerythritolyl-4-Arm-(PEG-1-Methylene-2Oxo-Vinylamino Acetate Linked-Irinotecan)-20K [listing 2 of 2 here] | – | – | 1.25 | 97.0 | 0.4 | 98.7 | greater hydrolytic stability than either the free base or mixed TFA.hydrochloride salt | more prone to PEG backbone decomposition than the mixed salt sample containing 14% free base | greater degree of backbone degradation
